Series [1] concerns MS2 coat protein. In words: apparent KD of MS2 coat protein, switch OFF state (with FMN for OFF switches, without FMN for ON switches); designed switch direction (-1 OFF switch, 1 ON switch): 1; higher = weaker reporter binding. The conditions noted are these: FMN input: 0 or 200 uM; Eterna round: R93 (includes R88 designs). A digest of the protocol:
(§1)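 Binding of SNAP-549-labelled MS2 coat protein was measured on designed RNA switches transcribed on-chip from Illumina sequencing clusters. The protein rose in twofold steps from 0.7 or 1.5 nM to 3 µM, with 0.8–1.5 h per step early on and 10–20 min per step later, in 100 mM Tris-HCl pH 7.5, 80 mM KCl, 4 mM MgCl2, without or with constant ligand. Each design's apparent KD is the median of fits to its normalised cluster binding curves.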

The subject of series [2] is MS2 coat protein. In words: apparent KD of MS2 coat protein, switch ON state; designed switch direction (-1 OFF switch, 1 ON switch): 1; higher = weaker reporter binding. As to conditions: FMN input: 0 or 200 uM; Eterna round: R93 (includes R88 designs). A digest of the protocol: as §1

Consider “AAGAAACAUGAGGAUCACCCAUGUAGAAAUAUGGGAGGAUAUACAAAGACGAAAGUCAAAGUAGAAGGCCUGAAAG [Mat - Same State 1 - Eli mod - 84]”, for which the “apparent KD of MS2 coat protein” value stood at 72.4 nM in series [1] and 38.5 nM in series [2].

As to “GAAAAACAUGAGGAUCACCCAUGUAGAAAUAUGGGAGGAUAUACGAAGUCGAAAGACAAAGUAGAAGGCCUAAAAG [Garnet 27]”, the “apparent KD of MS2 coat protein” value in series [1] turned out to be 50.4 nM; in series [2] it was 27.9 nM.

As to “GGGAGGAAGAGAGAGGAUAUCCAAAGGAAAACAUGAGGAUCACCCAUGUAAAAGGUAGGAAAUUGGGAGAAGGCUCAAAAGAUGG [salish99-ss2-046]”, the “apparent KD of MS2 coat protein” value in series [1] worked out at 22.3 nM; in series [2], 70.5 nM.

In the case of “GCCGGUUAUGAGCAGGAUAUGUCACCGCUAACAUGAGGAUCACCCAUGUGAGCAAAAUCGAGGUCACAGAAGGGUUCCGGCAAAA [Disoerce]”, the “apparent KD of MS2 coat protein” value in series [1] was 41.9 nM; in series [2], 17.8 nM.

“AGAAAUAAAAGACAGGAUAUCCUUAAGAAAACAUGAGGAUCACCCAUGUAAAAGAAAAUAAAAAGGGAGAAGGGUCAAAAUAAGA [Mat - Same State 2 - JL mod - D80]”: the “apparent KD of MS2 coat protein” value in series [1] came out at 26.2 nM; in series [2], 18 nM.

For “GAAGACAUAGUUCAGGAUAUAUGAAUAGUCACAUGAGGAUCACCCAUGUCCAUUUAUAUGGGCACAUAGAAGGGAGGUAGUUAUC [SameState2 Malc#25]”, the “apparent KD of MS2 coat protein” value in series [1] came out at 380 nM; in series [2], 618 nM.

On to “AUAAAACAUGAGGAUCACCCAUGUAGAAAUAUGGGAGGAUAUACGAAGACGAAAGUCGAAGUAGAAGGCCUAAAAG [Mat - Same State 1 - Meechl mod - D116]”, for which the results for the “apparent KD of MS2 coat protein” value in series [1] and in series [2] were 67.7 nM and 27.7 nM, respectively.

Consider “UGAAGACAUGAGGAUCACCCAUGUGGGAAUAUGGGAGGAUAUACAAAGACGAGAGUCAGAGUAGAAGGCCUAGGAG [salish99-ss1-97]”, for which the “apparent KD of MS2 coat protein” value in series [1] was 103 nM; in series [2], 55.1 nM.

“AAAAAAAAAAGAGAGGAUAUCCAAAAAAAAACAUGAGGAUCACCCAUGUAAAAAAAAAAAAAAUGGGAGAAGGCUCAAAAAAAAAA [Helter Skelter 1]”: the “apparent KD of MS2 coat protein” value was determined as 54.8 nM in series [1] and 33.4 nM in series [2].

“AAUAAUUAUACGAAGGAUAUCGGUAUUAAGACAUGAGGAUCACCCAUGUAAUAUGGUUAUAUAAACGAGAAGGUCGAGGGUGAAA [JR_SS002_Sub008]”: the “apparent KD of MS2 coat protein” value in series [1] was 36.9 nM; in series [2] it was 38.6 nM.

On to “AUAAAACAUGAGGAUCACCCAUGUCCGACAAAUCAAGGAUAUGAUAGCCAAACCAGGCCGUUAGAAGGUGAAAGAA [Edgeza]”, for which the results for the “apparent KD of MS2 coat protein” value in series [1] and in series [2] were 147 nM and 276 nM, respectively.

With “AGAAAACAUGAGGAUCACCCAUGUAGAAAUAUGGGAGGAUAUACGAAGACGAAAGUCAAAGUAGAAGGCCUAAAAG [Mat - Same State 1 - Eli mod - D102]”, the “apparent KD of MS2 coat protein” value in series [1] came to 69.8 nM; in series [2] it was 22 nM.

Turning to “AAGAAACAUGAGGAUCACCCAUGUAAGAUAAACACAGGAUAUGCGAAAAGAAACAAAUAAGCAGAAGGGUGAAGAA [Mat - Same State 1 - Tesla mod - 64]”, the “apparent KD of MS2 coat protein” value in series [1] was found to be 23 nM; in series [2] it was 16.3 nM.

As to “GAAGAACAUGAGGAUCACCCAUGUGAGAACAUGGGAGGAUAUACGAGGACGAAAGUCAAAGUAGAAGGCCUAAGAG [Garnet 87]”, the “apparent KD of MS2 coat protein” value was 29.8 nM in series [1] and 104 nM in series [2].

Consider “AGAAAUAAAAGUCAGGAUAUGGGUAAGAAAACAUGAGGAUCACCCAUGUAAAAGAAAAUAAAAAACCAGAAGGGACAAAAUAAAG [Reversing G segment in JL's winner (80%) Variant 4]”, for which the “apparent KD of MS2 coat protein” value was determined as 88.6 nM in series [1] and 30.1 nM in series [2].

As to “AGGAAACAUGAGGAUCACCCAUGUAAAAAUAUGGGAGGAUAUUGAAAGACGAAAGUCAAACAAGAAGGCCUAAAAG [Garnet 21]”, the “apparent KD of MS2 coat protein” value in series [1] came out at 128 nM; in series [2] it was 24 nM.

(Values after the supplement of paper PMC9170038.)
